From patent publication US20240383994A1 (CHIA TAI TIANQING PHARMACEUTICAL GROUP, published 2024) come the findings set out here.

Where a chain is given by its changes, count along the chain named.

Test [1] addresses T1, human CD40 (hCD40), full length, on cells (human, UniProt P25942 21-277). Nature of the test: cell-based or functional assay.
Test [2] addresses T1, human CD40 (hCD40), full length, on …. Kind of test: cell-based or functional assay. This is another data set of the same source.
The next test deals with T2, hCD40-mFc (human).
T2 construct: Prepared in-house in CHO cells; also called human CD40 recombinant protein containing a mouse antibody heavy chain Fc; Human CD40-mFc
Kind of test: flow cytometry, blocking of hCD40-mFc (2 µg/mL) binding to CHO-K1-hCD40L cells. Here is the method:
A CHO-K1-hCD40L cell suspension and a CHO-K1-CynoCD40L cell suspension at a cell concentration of 3×10⁵ cells/mL were separately added into a 96-well U-bottom plate at 100 μL/well. An hCD40-mFc protein at a final concentration of 2 μg/mL (prepared in-house, SEQ ID NO: 64) or a cynoCD40-mFc protein at a final concentration of 2 μg/mL (prepared in-house, SEQ ID NO: 65) was added correspondingly, before serially 2-fold diluted anti-CD40 antibodies in a final concentration range of 312.5 ng/ml-40000 ng/ml were added. The mixture was mixed well, and then incubated at 4° C. for 1 h. The cells were washed with PBS containing 2% of FBS, and then a PE-conjugated goat anti-mouse IgG (H+L) antibody (Abcam, Cat. No.: ab97041) diluted at a volume ratio of 1:500 was added, and the mixture was incubated at 4° C. for 0.5 h. The cells were washed with PBS containing 2% of […], and then resuspended in PBS containing 2% of FBS. The fluorescence signals were detected on a flow cytometer (Sartorius IQue3). The activity of anti-CD40 antibodies to block the binding of CHO-K1-hCD40L cells to an hCD40-mFc protein and CHO-K1-cynoCD40L cells to a cynoCD40-mFc protein was analyzed by the mean fluorescence intensity (MFI) of staining, and the IC₅₀ value was calculated by GraphPad Prism software.
Background: Flow cytometry measures light scatter and fluorescence of single cells or particles in a stream.

Test [3] concerns the target T3, hCD40-His protein (Acro, Cat. No.: CD0-H5228) (human, UniProt P25942 21-193).
T3 construct: Bought protein; also called human CD40 antigen; not shown: His tag
Kind of test: BLI (Fortebio Octet RED96e), antibody captured on AHC sensor, antigen 1.56-100 nM, 1:1 model. On the procedure: (§1) The affinity of humanized anti-CD40 antibodies to an hCD40-His protein (Acro, Cat. No.: CD0-H5228) and a CynoCD40-His protein (Acro, Cat. No.: CD0-C52H6) was detected by a ForteBio molecular interaction system. Firstly, an AHC biosensor (Fortebio, Cat. No.: 18-5060) was activated, and then immersed in an anti-CD40 antibody solution at a final concentration of 5 μg/mL to capture the antibodies. Serially 2-fold diluted hCD40-His protein and CynoCD40-His protein in a final concentration range of 1.56 nM-100 nM were then […] the AHC biosensor. The response signals were detected in real time on a Fortebio molecular interaction system (Fortebio Octet RED96e) to give association and dissociation curves. After the completion of dissociation in each cycle, the AHC biosensor was regenerated for the next capture; the procedure was repeated until the affinity of the different antibodies for CD40 was determined. The resulting data were analyzed by Fortebio Data Analysis 11.0 software using a 1:1 (Langmuir) binding model to determine the Kₐ (Kₒₙ) and Kd (Kdis) values, and the dissociation constant KD was calculated by KD=Kd/Kₐ. See www.fortebio.com for more detailed detection procedures and related information.
In general terms: Biolayer interferometry detects binding as a change in optical thickness at a sensor tip.

Test [4] has as its target T4, CynoCD40-His protein (Acro, Cat. No.: CD0-C52H6) (cynomolgus monkey, UniProt P25942 21-193 (human entry)).
T4 construct: Bought protein; also called cynomolgus monkey CD40 antigen; not shown: His tag
T4 chain: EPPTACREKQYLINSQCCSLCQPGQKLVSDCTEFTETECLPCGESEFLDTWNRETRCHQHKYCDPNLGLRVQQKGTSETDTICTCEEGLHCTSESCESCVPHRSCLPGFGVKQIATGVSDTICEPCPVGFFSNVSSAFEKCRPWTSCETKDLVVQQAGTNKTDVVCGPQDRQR
Described as above. Here is the method: as §1

The target in test [5] is T1, human CD40 (hCD40), full length, on …. Nature of the test: flow cytometry (MFI) on 293T-hCD40-NFκB cells, PE anti-human IgG detection.
Test [6] shares this target. Nature of the test: flow cytometry (MFI) on CHO-K1-hCD40 cells, PE anti-human IgG detection.
Test [7] has the same target. Nature of the test: cell-based or functional assay. This is another data set of the same source.

B1: hzA01-3.3 (antibody, human IgG4 S228P, kappa, V domains shown)
VH: QVQLKESGPGLVKPSETLSLTCTVSGFSLPTSGVHWIRQPPGKGLEWIGVIWAGGDTNYNSALKSRVTISKDNSKSQVFLKLSSVTAADTAVYYCLGHGHFDVWGQGTLVTVSS
VL: DVVMTQSPLSLPVTLGQPASISCRSSQSLVHSSGNTYLQWYLQRPGQSPGLLIYKVSNRFSGVPDRFSGSGSGTDFTLKISRVEAEDVGVYYCSQTTHVPWTFGQGTKLEIKR
notes: Humanized A01; also called hzA01L3 + hzA01H3
In the case of B1, in test [1], the “MFI value (CD95 on Ramos cells), Fc crosslinking with anti-human IgG Fcγ antibody, 1 µg/mL antibody” value worked out at 14100 MFI and the “MFI value (CD95 on Ramos cells), Fc crosslinking with anti-human IgG Fcγ antibody, 10 µg/mL antibody” value stood at 12300 MFI. For the same molecule, the “IC50 (read off the curve); NF-κB luciferase reporter (RLU), 293T-hCD40-NFκB cells co-cultured 1:1 with CHO-K1-hCD40L cells” value in test [2] is about 2 ng/mL. Besides, the IC50 (in general, the concentration that gives 50% inhibition) in the test with hCD40-mFc was 38.4 nM. In test [3], the Kd (commonly the constant that tells how readily two partners part at equilibrium) turned out to be 0.255 nM, the koff (commonly a measure of how fast the partners let go of each other) amounted to 0.000414 s⁻¹ and the on-rate constant (kon) (usually the rate constant with which the complex forms) came out at 1.63e+06 M⁻¹ s⁻¹. Moreover, in test [4], the affinity, expressed as Kd, was 0.243 nM; the koff was 0.000484 s⁻¹; the kon turned out to be 1.99e+06 M⁻¹ s⁻¹. Also, in test [5], the EC50 (read off the curve) (commonly the concentration needed to bring the measured effect to its halfway point) is about 3 ng/mL.

B2: Chi-A02 (antibody, human IgG4 S228P, kappa, V domains shown)
VH: QVQLKESGPGLVAPSQSLSITCTVSGFSLTSSGVHWVRQPPGKGLEWLGVIWAGGDTSYNSALMSRLSISKDNSKSQVFLKMNSLQTDDTAMYYCLGHGHLDVWGAGTTVTVSS
VL: B1 VL with S7T, T14S, Q17D, P18Q, Q39H, R44K, V88L, Y92F, Q105G
notes: also called chimeric A02
Turning to B2, in test [6], the response was half-maximal at 0.39 nM (EC50). Also, in test [7], the “IC50, inhibition of Ramos cell apoptosis induced by CD40L and IL-4” value was determined as 0.00499 nM; the “Inhibition, % of Ramos cell apoptosis at 0.064 ng/L (so in the source)” value came to 5%; the “Inhibition, % of Ramos cell apoptosis at 0.32 ng/L (so in the source)” value stood at 20%; the “Inhibition, % of Ramos cell apoptosis at 1.6 ng/L (so in the source)” value stood at 85%. Further, in test [7], the “Inhibition, % of Ramos cell apoptosis at 8 ng/L (so in the source)” value was determined as 98%; the “Inhibition, % of Ramos cell apoptosis at 40 ng/L (so in the source)” value was 97%; the “Inhibition, % of Ramos cell apoptosis at 200 ng/L (so in the source)” value was found to be 97%; the “Inhibition, % of Ramos cell apoptosis at 1000 ng/L (so in the source)” value came out at 94%.

B3: hzA01-3.4 (antibody, human IgG4 S228P, kappa, V domains shown)
VH: B1 VH with K64M, L82M
VL: B1 VL
notes: Humanized A01; also called hzA01L3 + hzA01H4
Regarding B3, the “IC50 (read off the curve); NF-κB luciferase reporter (RLU), 293T-hCD40-NFκB cells co-cultured 1:1 with CHO-K1-hCD40L cells” value in test [2] is about 0.6 ng/mL. For the same molecule, in the test with hCD40-mFc, the IC50 came to 19.8 nM. Moreover, in test [3], binding was characterised by a dissociation constant (Kd) of 0.264 nM, the dissociation rate constant (koff) came out at 0.000454 s⁻¹ and the kon is 1.72e+06 M⁻¹ s⁻¹. Further, in test [4], the Kd is 0.262 nM, the dissociation rate constant (koff) amounted to 0.000532 s⁻¹ and the kon amounted to 2.03e+06 M⁻¹ s⁻¹. Also, in test [5], the “EC50 (read off the curve)” value was about 2 ng/mL.

B4: Chi-A03 (antibody, human IgG4 S228P, kappa, V domains shown)
VH: DVQLQESGPDRVKPSQSLSLTCTVTGYSITSDYSWHWIRQFPGNKLEWMGYIYSSGHTYYNPSLKSRISFTRDTSKNQFFLQLNSVTTEDTATYYCAIYYYGRSYFDNWGRGTTLTVSS
VL: QIVLTQSPAIMSASPGEKVTLTCSASSSVNYMHWYQQKSGTSPKRWIYDTSKLASGVPARFSGSGSGTSYSLTISSMEAEDAATYYCQQWSSNPLTFGAGTKLELKR
notes: also called chimeric A03
Consider B4, for which, in test [6], the concentration giving a half-maximal response (EC50) (as a rule, the midpoint of the concentration-response curve) turned out to be 1.36 nM. Moreover, in test [7], the “IC50, inhibition of Ramos cell apoptosis induced by CD40L and IL-4” value worked out at 0.134 nM; the “Inhibition, % of Ramos cell apoptosis at 0.064 ng/L (so in the source)” value was -8%; the “Inhibition, % of Ramos cell apoptosis at 0.32 ng/L (so in the source)” value was -9%; the “Inhibition, % of Ramos cell apoptosis at 1.6 ng/L (so in the source)” value is -10%. Besides, in test [7], the “Inhibition, % of Ramos cell apoptosis at 8 ng/L (so in the source)” value stood at 18%; the “Inhibition, % of Ramos cell apoptosis at 40 ng/L (so in the source)” value was 66%; the “Inhibition, % of Ramos cell apoptosis at 200 ng/L (so in the source)” value is 90%; the “Inhibition, % of Ramos cell apoptosis at 1000 ng/L (so in the source)” value worked out at 98%. In test [3], this molecule gave a Kd of 2.51 nM, an off-rate (koff) of 0.00147 s⁻¹ and a kon of 586000 M⁻¹ s⁻¹.
